Test results from the Human Domainome abundance scans (Beltran et al. 2025).
± gives the uncertainty stated by the source.

B1: Cold shock protein CspB, residues 1 to 66; numbered along this chain, P41016 (parent)
chain: MQRGKVKWFNNEKGYGFIEVEGGSDVFVHFTAIQGEGFKTLEEGQEVSFEIVQGNRGPQAANVVKL

Variants of: B1
Assay: abundance fitness (aPCA) (normalised: wild type 0, dead -1); higher = more abundant; growth selection in yeast, the domain comes from the species named
Conditions: Bacillus caldolyticus

Row | Variant | abundance fitness
1 | E12Q | 0.017 ± 0.057
2 | E12Y | 0.016 ± 0.045
3 | E12T | 0.034 ± 0.037
4 | G22C | 0.02 ± 0.057
5 | G22T | 0.025 ± 0.048
6 | G22Q | -0.035 ± 0.058
7 | G22L | -0.012 ± 0.028
8 | G22W | -0.019 ± 0.036
9 | G57Q | -0.116 ± 0.048
10 | G57V | -0.238 ± 0.029
11 | G57A | -0.145 ± 0.042
12 | G57F | -0.237 ± 0.052
13 | G57T | -0.089 ± 0.049
14 | Q2I | 0.028 ± 0.078
15 | Q2H | 0.027 ± 0.083
16 | Q2V | 0.018 ± 0.039
17 | Q2R | -0.006 ± 0.038
18 | Q2C | 0.027 ± 0.061
19 | Q2G | -0.043 ± 0.039
20 | K7S | -0.033 ± 0.026
21 | K7T | -0.052 ± 0.032
22 | E42F | -0.048 ± 0.049
23 | E42C | -0.013 ± 0.064
24 | E42P | -0.043 ± 0.042

Row | Variant | abundance fitness
25 | E42A | 0.018 ± 0.041
26 | E42V | -0.008 ± 0.028
27 | V63W | -0.774 ± 0.07
28 | V63Q | -1.13 ± 0.18
29 | V63G | -0.873 ± 0.062
30 | D25F | -0.251 ± 0.054
31 | D25E | -0.082 ± 0.043
32 | D25A | -0.113 ± 0.04
33 | D25W | -0.26 ± 0.036
34 | D25H | -0.102 ± 0.064
35 | D25I | -0.214 ± 0.063
36 | D25P | -0.093 ± 0.036
37 | G35F | -0.067 ± 0.059
38 | G35P | -0.172 ± 0.045
39 | G35Q | 0.001 ± 0.045
40 | G35V | -0.033 ± 0.037
41 | G35S | -0.035 ± 0.039
42 | G35W | -0.134 ± 0.044
43 | T31G | -0.079 ± 0.044
44 | T31I | -0.314 ± 0.053
45 | T31N | -0.127 ± 0.066
46 | E21A | 0.017 ± 0.048
47 | E21F | -0.052 ± 0.054
48 | E21K | -0.017 ± 0.066

Row | Variant | abundance fitness
49 | E21M | -0.051 ± 0.069
50 | F49K | -1.08 ± 0.13
51 | F49Y | -0.037 ± 0.083
52 | F49T | -0.27 ± 0.045
53 | F49H | -0.445 ± 0.09
54 | F49S | -0.577 ± 0.045
55 | F49I | -0.123 ± 0.08
56 | F49W | -0.69 ± 0.074
57 | F49C | -0.021 ± 0.089
58 | I51P | -0.023 ± 0.05
59 | I51A | -0.038 ± 0.042
60 | I51T | -0.033 ± 0.048
61 | I51H | -0.019 ± 0.082
62 | I51V | 0.009 ± 0.049
63 | I51E | -0.026 ± 0.048
64 | G23I | -0.041 ± 0.055
65 | G23Q | 0.012 ± 0.055
66 | G23W | -0.057 ± 0.04
67 | G23S | 0.011 ± 0.034
68 | E36W | -0.017 ± 0.043
69 | E36F | -0.023 ± 0.047
70 | E36C | -0.042 ± 0.058
71 | E36S | -0.007 ± 0.036
72 | E36N | -0.037 ± 0.11

Row | Variant | abundance fitness
73 | E36P | -0.017 ± 0.043
74 | E36L | -0.024 ± 0.031
75 | F30I | -0.087 ± 0.068
76 | F30P | -0.227 ± 0.05
77 | F30T | -0.127 ± 0.05
78 | F30W | -0.026 ± 0.051
79 | F30Q | -0.025 ± 0.074
80 | F30K | -0.016 ± 0.057
81 | M1E | 0.008 ± 0.053
82 | M1G | -0.064 ± 0.05
83 | M1I | -0.006 ± 0.075
84 | M1Y | 0.027 ± 0.15
85 | M1S | -0.049 ± 0.049
86 | M1Q | -0.021 ± 0.2
87 | M1F | -0.025 ± 0.065
88 | M1R | -0.096 ± 0.047
89 | Q45C | -0.031 ± 0.07
90 | Q45H | -0.036 ± 0.077
91 | Q45R | -0.039 ± 0.035
92 | Q45G | 0.032 ± 0.042
93 | F38S | -0.057 ± 0.037
94 | F38Y | -0.009 ± 0.057
95 | F38H | -0.132 ± 0.067
96 | G4S | -0.109 ± 0.021

Row | Variant | abundance fitness
97 | G4R | -0.537 ± 0.024
98 | G4N | -0.368 ± 0.029
99 | Q59D | -0.429 ± 0.072
100 | Q59N | -0.082 ± 0.092
101 | Q59S | -0.01 ± 0.028
102 | Q59Y | -0.012 ± 0.065
103 | V26I | -0.017 ± 0.045
104 | V26M | -0.056 ± 0.043
105 | V26R | -0.248 ± 0.032
106 | V26W | -0.23 ± 0.035
107 | W8G | -0.304 ± 0.2
108 | K5G | -0.222 ± 0.033
109 | K5M | -0.069 ± 0.039
110 | K5I | -0.037 ± 0.05
111 | K5N | -0.029 ± 0.063
112 | K5V | -0.03 ± 0.039
113 | K5P | -0.22 ± 0.041
114 | K5Q | -0.056 ± 0.045
115 | G54F | -0.127 ± 0.075
116 | G54V | -0.171 ± 0.068
117 | G54E | -0.106 ± 0.059
118 | G54W | -0.18 ± 0.036
119 | G54A | -0.028 ± 0.061
120 | V47Q | -0.935 ± 0.36

Row | Variant | abundance fitness
121 | V47G | -0.623 ± 0.26
122 | V47I | 0.065 ± 0.14
123 | V47S | -0.866 ± 0.38
124 | Y15C | -0.186 ± 0.048
125 | Y15A | -0.233 ± 0.052
126 | Y15V | -0.155 ± 0.035
127 | Y15W | 0.023 ± 0.051
128 | Y15S | -0.22 ± 0.028
129 | Y15P | -0.885 ± 0.073
130 | E19P | -0.316 ± 0.037
131 | E19G | 0.023 ± 0.039
132 | E19V | 0.002 ± 0.044
133 | E19M | 0 ± 0.043
134 | E19K | 0.031 ± 0.078
135 | E19C | 0.021 ± 0.06
136 | E19T | -0.029 ± 0.064
137 | E19R | 0.008 ± 0.037
138 | E19A | 0.05 ± 0.052
139 | E19W | -0.011 ± 0.044
140 | I18C | -0.164 ± 0.064
141 | I18M | -0.208 ± 0.039
142 | R3A | -0.032 ± 0.034
143 | R3K | -0.046 ± 0.055
144 | R3S | -0.039 ± 0.031

Row | Variant | abundance fitness
145 | L41K | -0.721 ± 0.047
146 | L41H | -0.616 ± 0.063
147 | L41W | -0.359 ± 0.033
148 | L41D | -0.554 ± 0.069
149 | L41C | -0.121 ± 0.054
150 | L41M | -0.01 ± 0.04
151 | L41I | 0.003 ± 0.064
152 | G37F | -0.153 ± 0.055
153 | G37W | -0.141 ± 0.041
154 | G37Q | -0.078 ± 0.056
155 | G37I | -0.18 ± 0.054
156 | G37R | -0.083 ± 0.034
157 | S48P | -0.847 ± 0.061
158 | S48N | -0.099 ± 0.089
159 | S48Q | -0.007 ± 0.052
160 | S48M | 0.026 ± 0.05
161 | S48L | -0.035 ± 0.032
162 | S48I | -0.028 ± 0.074
163 | G14D | -0.468 ± 0.059
164 | G14I | -0.902 ± 0.077
165 | G14E | -0.359 ± 0.032
166 | G14L | -0.24 ± 0.028
167 | G14C | -0.13 ± 0.081
